Source: patent publication US20160185837A1, “GIP AND GLP-1 RECEPTOR DUAL-AGONISTS FOR THE TREATMENT OF DIABETES” (Medimmune Limited, priority 2013, published 2016)
Residue numbers refer to the chain shown, from its start. One block for each binder: values may come before it. Ends that are not written are not given here.

How the values were obtained:
Test in all cases: cell-based or functional assay
[1] = biological target: cynomolgus monkey GLP-1 receptor (cynomolgus monkey) (UniProt F8V479)
[2] = biological target: cynomolgus monkey glucagon receptor (cynomolgus monkey)
[3] = biological target: T1, human GIP receptor (human) (UniProt P48546)
T1 sequence (looked up): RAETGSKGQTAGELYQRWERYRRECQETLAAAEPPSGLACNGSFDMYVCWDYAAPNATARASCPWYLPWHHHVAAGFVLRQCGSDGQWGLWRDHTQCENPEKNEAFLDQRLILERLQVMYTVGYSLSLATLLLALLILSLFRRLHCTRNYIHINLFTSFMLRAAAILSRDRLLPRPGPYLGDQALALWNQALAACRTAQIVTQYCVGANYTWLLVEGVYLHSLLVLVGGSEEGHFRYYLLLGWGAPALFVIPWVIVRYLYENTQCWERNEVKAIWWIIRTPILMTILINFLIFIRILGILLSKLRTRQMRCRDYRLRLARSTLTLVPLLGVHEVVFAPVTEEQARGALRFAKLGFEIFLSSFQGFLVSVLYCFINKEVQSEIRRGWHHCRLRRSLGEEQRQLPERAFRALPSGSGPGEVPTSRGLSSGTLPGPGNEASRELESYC

[4] = biological target: human GLP-1 receptor (human) (UniProt P43220)
human GLP-1 receptor (human), sequence (P43220 24-463): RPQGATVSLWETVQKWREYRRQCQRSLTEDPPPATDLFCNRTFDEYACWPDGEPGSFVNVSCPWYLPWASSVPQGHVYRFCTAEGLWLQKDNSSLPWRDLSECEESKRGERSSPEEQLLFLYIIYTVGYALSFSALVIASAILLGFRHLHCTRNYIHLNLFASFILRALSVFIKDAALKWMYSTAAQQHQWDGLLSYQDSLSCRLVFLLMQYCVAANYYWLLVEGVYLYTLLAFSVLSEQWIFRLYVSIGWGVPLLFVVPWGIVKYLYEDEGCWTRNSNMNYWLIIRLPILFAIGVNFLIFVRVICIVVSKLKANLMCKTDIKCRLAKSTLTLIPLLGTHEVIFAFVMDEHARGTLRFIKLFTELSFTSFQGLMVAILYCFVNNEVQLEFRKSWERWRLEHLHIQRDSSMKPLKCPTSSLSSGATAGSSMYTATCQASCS

[5] = biological target: human glucagon receptor (human) (UniProt P47871)
human glucagon receptor (human), sequence (P47871 26-477): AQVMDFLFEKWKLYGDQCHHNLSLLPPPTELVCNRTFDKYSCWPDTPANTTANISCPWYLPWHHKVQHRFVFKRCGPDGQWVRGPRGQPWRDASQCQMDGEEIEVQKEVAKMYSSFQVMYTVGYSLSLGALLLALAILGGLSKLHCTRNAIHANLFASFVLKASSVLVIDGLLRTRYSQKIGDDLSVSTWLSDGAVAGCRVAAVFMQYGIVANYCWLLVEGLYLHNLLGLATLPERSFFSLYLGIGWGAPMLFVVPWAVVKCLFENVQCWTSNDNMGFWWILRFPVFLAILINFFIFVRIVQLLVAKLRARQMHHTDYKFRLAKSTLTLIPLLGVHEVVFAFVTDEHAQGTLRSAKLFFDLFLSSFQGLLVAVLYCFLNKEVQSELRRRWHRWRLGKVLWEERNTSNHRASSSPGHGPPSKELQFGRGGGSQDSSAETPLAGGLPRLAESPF

[6] = biological target: T2, mouse GIP receptor (mouse) (UniProt Q0P543)
T2 sequence (looked up): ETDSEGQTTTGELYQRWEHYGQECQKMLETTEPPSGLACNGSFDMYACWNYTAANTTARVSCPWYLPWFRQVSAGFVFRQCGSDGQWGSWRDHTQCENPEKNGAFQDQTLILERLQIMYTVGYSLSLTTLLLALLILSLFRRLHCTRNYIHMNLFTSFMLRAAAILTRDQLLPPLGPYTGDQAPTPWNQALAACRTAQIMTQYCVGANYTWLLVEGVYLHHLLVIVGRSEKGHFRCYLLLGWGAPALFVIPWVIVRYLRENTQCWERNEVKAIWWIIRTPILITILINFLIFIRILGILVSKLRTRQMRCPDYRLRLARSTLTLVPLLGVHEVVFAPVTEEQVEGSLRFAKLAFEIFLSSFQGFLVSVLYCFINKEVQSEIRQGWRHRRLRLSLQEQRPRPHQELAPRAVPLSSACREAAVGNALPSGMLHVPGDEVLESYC

[7] = biological target: mouse GLP-1 receptor (mouse) (UniProt O35659)
mouse GLP-1 receptor (mouse), sequence (O35659 22-463): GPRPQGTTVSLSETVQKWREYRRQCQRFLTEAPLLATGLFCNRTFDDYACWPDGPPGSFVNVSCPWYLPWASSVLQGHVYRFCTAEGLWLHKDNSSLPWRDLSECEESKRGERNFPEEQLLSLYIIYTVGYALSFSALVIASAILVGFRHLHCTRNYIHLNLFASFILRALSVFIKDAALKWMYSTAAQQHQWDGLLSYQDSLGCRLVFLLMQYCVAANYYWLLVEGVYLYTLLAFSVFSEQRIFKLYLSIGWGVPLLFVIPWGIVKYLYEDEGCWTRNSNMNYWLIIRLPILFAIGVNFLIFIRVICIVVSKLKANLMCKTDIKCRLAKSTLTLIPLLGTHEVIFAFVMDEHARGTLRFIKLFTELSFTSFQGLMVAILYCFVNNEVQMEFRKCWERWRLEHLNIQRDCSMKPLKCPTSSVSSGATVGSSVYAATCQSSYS

rat GIP receptor (rat) = biological target: T3, rat GIP receptor (rat) (UniProt P43219)
T3 sequence (looked up): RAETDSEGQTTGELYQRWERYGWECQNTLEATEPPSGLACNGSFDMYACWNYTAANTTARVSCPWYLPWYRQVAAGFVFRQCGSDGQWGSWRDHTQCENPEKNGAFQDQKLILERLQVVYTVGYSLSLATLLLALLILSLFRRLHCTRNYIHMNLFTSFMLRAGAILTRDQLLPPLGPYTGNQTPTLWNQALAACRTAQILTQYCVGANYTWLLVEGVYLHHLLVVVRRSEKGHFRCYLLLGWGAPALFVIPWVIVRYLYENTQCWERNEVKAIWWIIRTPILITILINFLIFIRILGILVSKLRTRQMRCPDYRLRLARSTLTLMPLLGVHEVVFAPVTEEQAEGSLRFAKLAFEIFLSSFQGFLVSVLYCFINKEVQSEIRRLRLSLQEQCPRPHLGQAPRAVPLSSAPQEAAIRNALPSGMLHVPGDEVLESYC

rat GLP-1 receptor (rat) = rat GLP-1 receptor (rat) (UniProt P32301)
rat GLP-1 receptor (rat), sequence (P32301 22-463): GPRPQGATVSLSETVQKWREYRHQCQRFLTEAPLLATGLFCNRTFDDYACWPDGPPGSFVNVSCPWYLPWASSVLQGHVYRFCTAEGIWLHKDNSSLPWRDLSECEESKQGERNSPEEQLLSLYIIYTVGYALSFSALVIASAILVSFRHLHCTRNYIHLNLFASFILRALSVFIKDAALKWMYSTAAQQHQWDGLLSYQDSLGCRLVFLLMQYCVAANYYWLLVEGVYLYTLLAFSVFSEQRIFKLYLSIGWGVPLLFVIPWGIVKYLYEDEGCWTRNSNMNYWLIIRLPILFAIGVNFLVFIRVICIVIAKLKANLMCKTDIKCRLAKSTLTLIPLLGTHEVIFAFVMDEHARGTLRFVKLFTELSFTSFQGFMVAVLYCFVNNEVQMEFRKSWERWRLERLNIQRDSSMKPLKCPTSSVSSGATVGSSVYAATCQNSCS

cynomolgus monkey GLP-1 receptor (cynomolgus monkey), sequence (F8V479 entry or part of it): as the sequence (P43220 24-463) above, with S112N, F120S, S202G, L205V, L237F, W241R, I249V counted along it

cAMP EC50, 4.2% cyno serum albumin [1]: 0.011 nM
cAMP EC50, 4.2% cyno serum albumin [2]: > 1000 nM
B1: GLP-1 analogue-Fc (gamma4) fusion control (Fc fusion, not shown: a dimerising Fc or GST)
chain: HGEGTFTSDVSSYLEEQAAKEFIAWLVKGR
modifications: also: fused to linker, hinge and IgG4 Fc (not given here)

cAMP EC50 [3]: 0.011 nM
cAMP EC50 [4]: 1.4 nM
cAMP EC50 [5]: > 1430 nM
cAMP EC50 [6]: 2.6 nM
cAMP EC50 [7]: 9 nM
cAMP EC50 (rat GIP receptor (rat)): 0.06 nM
cAMP EC50 (rat GLP-1 receptor (rat)): 0.18 nM
B2: IP329 (Fc fusion)
chain: YSEGTFTSDYSKLLERQAIDEFIAELLKGGGGGGGSGGGGSGGGGSGGGGSGGGGSGGGGSA

cAMP EC50 [3]: 0.15 nM
cAMP EC50 [4]: 0.35 nM
cAMP EC50 [5]: 3700 nM
cAMP EC50 [6]: 31 nM
cAMP EC50 [7]: 1.4 nM
cAMP EC50 (rat GIP receptor (rat)): 5.2 nM
cAMP EC50 (rat GLP-1 receptor (rat)): 0.038 nM
B3: IP310 (Fc fusion)
chain: YSEGTFTSDVSSYMERQAIDEFIAWLLKGKAAAGGSGSTASSGSGSATGGGGAATHTCPPC

cAMP EC50 [3]: 0.048 nM
cAMP EC50 [4]: > 5310 nM
cAMP EC50 [5]: > 5310 nM
cAMP EC50 [6]: 16 nM
cAMP EC50 [7]: > 1060 nM
cAMP EC50 (rat GIP receptor (rat)): 1.2 nM
cAMP EC50 (rat GLP-1 receptor (rat)): 5.4 nM
B4: IP312 (Fc fusion)
chain: B3 chain with T7I, K30G

cAMP EC50 [3]: 0.024 nM
cAMP EC50 [4]: > 5460 nM
cAMP EC50 [5]: 280 nM
cAMP EC50 [6]: 0.36 nM
cAMP EC50 [7]: > 5460 nM
cAMP EC50 (rat GIP receptor (rat)): 0.096 nM
cAMP EC50 (rat GLP-1 receptor (rat)): 13 nM
B5: IP315 (Fc fusion)
chain: B3 chain with T7I, V10Y, M14L, K30G
